Source: patent publication US20080311122A1, “Antagonists of Hmgb1 and/or Rage and Methods of Use Thereof” (Medimmune, LLC, priority 2005, published 2008)

T1: recombinant HMG1 purified from E. coli as a calmodulin binding protein (CBP) fusion protein (human)
T1 chain: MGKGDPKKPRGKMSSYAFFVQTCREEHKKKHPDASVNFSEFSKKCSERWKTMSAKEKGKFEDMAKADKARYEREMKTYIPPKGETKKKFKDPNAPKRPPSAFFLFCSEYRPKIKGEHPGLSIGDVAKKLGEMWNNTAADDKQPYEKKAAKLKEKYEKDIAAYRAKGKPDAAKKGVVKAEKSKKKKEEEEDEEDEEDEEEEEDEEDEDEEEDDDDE

B1: anti-HMG1 antibody G20 (antibody, V domains shown)
VH: EVQLLESGGGLVQPGGSLRLSCAASGFTFSWYDMFWVRQAPGKGLEWVSWISPSGGYTKYADSVKGRFTISRDNSKNTLYLQMNSLRAEDTAMYYCARSGLDYYDSSGYLDAFDIWGQGTMVTVSS
VL: AQDIQMTQSPSSVSASVGDRVTITCRASQDVSIWLAWYQQKPGKAPKLLIFGASRLQSGVPSRFSGSRSGADFTLTIDSVQPEDFASYYCQQADSFPLTFGGGTKVEIK
B2: anti-HMG1 antibody G2 (antibody, V domains shown)
VH: EVQLLESGGGLVQPGGSLRLSCAASGFTFSWYKMQWVRQAPGKGLEWVSGISPSGGSTAYADSVKGRFTISRDNSKNTLYLQMNSLRAEDTAVYYCAKMGLFNTGNSYVDYWGQGTLVTVSS
VL: AQSELTQPPSVSEAPGQRVTISCSGSTSNIGNNAVIWYQQLPGKAPKLLIYYDDLLPSGVSDRFSGSKSGTSGSLAISGLQSEDEADYYCASWDDNLNGPLFGGGTKLTVL
B3: anti-HMG1 antibody S17 (antibody, V domains shown)
VH: EVQLLESGGGLVQPGGSLRLSCAASGFTFSYYDMHWVRQAPGKGLEWVSRISPSGGYTWYADSVKGRFTISRDNSKNTLYLQMNSLRAEDTAVYYCTRGRYTSGWHEYFDPWGQGTLVTVSS
VL: AQDIQMTQSPSSLSASVGDRVTITCRASQSIGTYLNWYQQKPGTAPKVLIYAASSLQSGVPSRFSGSGSGTDFTLTISSLQPEDFSTYYCQQSYNTPRTFGQGTKLEIK

Target: T1, recombinant HMG1 purified from E. coli …
Assay: BIAcore, mAb immobilized, HMG1 injected, steady-state model
Settings: remark: other sources report otherwise
B1 showed a Kd of 114 nM.
With B2 the Kd was 101 nM.
For B3, the Kd was 331 nM.
